Assay [1] addresses T1, human CD3ε (human, UniProt P07766 23-207).
T1 construct: whole, on cells; Present on cells as part of the CD3/TCR complex; also called CD3 epsilon
The assay can be described thus: flow cytometry, HUT-78 cells.

Assay [2] deals with T2, human CEACAM8 (human, UniProt P31997 35-320).
T2 construct: whole, on cells
T2 sequence (looked up): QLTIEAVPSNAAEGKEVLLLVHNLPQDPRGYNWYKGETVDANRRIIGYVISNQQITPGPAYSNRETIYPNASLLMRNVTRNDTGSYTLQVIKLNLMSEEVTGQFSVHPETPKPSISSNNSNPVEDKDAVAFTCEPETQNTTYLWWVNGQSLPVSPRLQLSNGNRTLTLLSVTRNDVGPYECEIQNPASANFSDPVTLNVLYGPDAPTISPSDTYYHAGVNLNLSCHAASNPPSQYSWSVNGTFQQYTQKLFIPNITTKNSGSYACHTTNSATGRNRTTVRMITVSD
The assay can be described thus: flow cytometry, transfected PEAK cells. From the text: Vectors encoding the full-length version of human CEACAM 1, 3, 4, 5, 6, 7, 8, 18, 19, 20 and […] are used to express these proteins at the surface of PEAK and/or CHO cells as described in Example 1. Similarly, vectors encoding the full-length version of cyno CEACAM 5 and 6 are also used to express these proteins at the surface of PEAK and/or CHO cells. Non-transfected PEAK and/or CHO cells are used as negative control. Cells are harvested, counted, checked for viability and resuspended at 3×10⁶ cells/ml in FACS buffer (PBS 2% BSA, 0.1% NaN₃). 100 μl of the cell suspension are distributed in V-bottom 96-well plates (3×10⁵ cells/well). The supernatant is removed by centrifugation 3 minutes at 4° C., 1300 rpm and the cells incubated for 15 minutes at 4° C. with increasing concentrations of the antibody according to the invention. The antibodies carrying the anti-CEACAM5 arms to test are diluted in FACS buffer and the concentration range is 30 pM-500 nM. Cells are washed twice with cold FACS buffer and re-incubated for further 15 minutes at 4° C. with a compatible anti-human IgG secondary antibody. Cells are washed twice with cold FACS buffer and resuspended in 300 μl FACS buffer with 1:1500-diluted TOPRO-3 (Invitrogen). Fluorescence is measured using a FACSCalibur™ (BD Biosciences) or a Cytoflex Platform (Beckman Coulter). Dose-response binding curves are fitted using GraphPad Prism8 software. In the same manner, CEACAM1, CEACAM6 and other CEACAMs can be characterized.
For the bispecific antibodies AB17L3-1/N, AB71L3-1/N, AB72L3-1/N, AB73L3-1/N the MFI measured for binding to CEACAM5 transfected cells was found between 29000 and 41000 (Table 2). In contrast MFI found by using PEAK cells transfected with CEACAM 1,3,4,6,8 were found below 1000 with the only exception of a strong signal for AB72L3-1/N on CEACAM8 transfected cells. When MFI values obtained on transfected cells expressing any given CEACAM are divided by the values obtained on WT PEAK cells, “factors to PEAK WT” can be calculated (Table 3).
In general terms: In flow cytometry, cells or beads pass a laser one at a time.

Assay [3] addresses T3, human CEACAM5 (carcinoembryonic antigen, CEA), cell surface (human, UniProt P06731 35-685).
T3 construct: whole, on cells; also called CD66e
T3 sequence (looked up): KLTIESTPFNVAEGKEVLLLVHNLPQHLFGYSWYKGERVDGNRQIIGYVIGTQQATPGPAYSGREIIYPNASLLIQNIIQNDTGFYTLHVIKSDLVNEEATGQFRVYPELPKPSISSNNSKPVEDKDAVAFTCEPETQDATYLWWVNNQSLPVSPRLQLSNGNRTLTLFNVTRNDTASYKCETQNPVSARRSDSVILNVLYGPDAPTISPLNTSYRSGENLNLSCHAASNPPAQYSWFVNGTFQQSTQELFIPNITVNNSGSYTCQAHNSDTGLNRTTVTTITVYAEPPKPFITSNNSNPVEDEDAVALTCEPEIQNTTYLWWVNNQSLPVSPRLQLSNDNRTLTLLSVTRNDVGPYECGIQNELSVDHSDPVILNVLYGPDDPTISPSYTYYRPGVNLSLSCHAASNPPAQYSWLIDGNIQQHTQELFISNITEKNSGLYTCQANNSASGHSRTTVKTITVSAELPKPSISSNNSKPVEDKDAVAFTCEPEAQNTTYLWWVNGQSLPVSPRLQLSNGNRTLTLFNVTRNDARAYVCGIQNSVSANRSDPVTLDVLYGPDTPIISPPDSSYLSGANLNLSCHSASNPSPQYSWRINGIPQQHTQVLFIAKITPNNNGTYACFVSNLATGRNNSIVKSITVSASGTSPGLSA
The assay can be described thus: flow cytometry, MKN-45 and/or HPAF-II cells.

The target of assay [4] is T1, human CD3ε. Kind of assay: flow cytometry, primary CD4+ and CD8+ T-cells.

Some results are limits rather than exact numbers.

T1 sequence (P07766 23-207): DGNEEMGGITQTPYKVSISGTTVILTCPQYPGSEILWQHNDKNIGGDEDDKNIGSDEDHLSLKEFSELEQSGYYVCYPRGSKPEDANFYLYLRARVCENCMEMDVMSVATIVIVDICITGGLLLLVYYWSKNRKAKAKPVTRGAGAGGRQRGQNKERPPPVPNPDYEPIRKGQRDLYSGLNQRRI

B1: AB17L3-1/N (bispecific antibody, human IgG1, kappa, lambda, L234A L235A)
heavy: EVQLVESGGGLVQPGGSLKLSCAASGFTFNTYAMNWVRQAPGKGLEWVGRIRSKYNNYATYYADSVKDRFTISRDDSKNTAYLQMNSLKTEDTAVYYCVRHGNFGNSYVSWFAYWGQGTLVTVSSASTKGPSVFPLAPSSKSTSGGTAALGCLVKDYFPEPVTVSWNSGALTSGVHTFPAVLQSSGLYSLSSVVTVPSSSLGTQTYICNVNHKPSNTKVDKRVEPKSCDKTHTCPPCPAPEAAGGPSVFLFPPKPKDTLMISRTPEVTCVVVDVSHEDPEVKFNWYVDGVEVHNAKTKPREEQYNSTYRVVSVLTVLHQDWLNGKEYKCKVSNKALAAPIEKTISKAKGQPREPQVYTLPPSREEMTKNQVSLTCLVKGFYPSDIAVEWESNGQPENNYKTTPPVLDSDGSFFLYSKLTVDKSRWQQGNVFSCSVMHEALHNHYTQKSLSLSPG
light 1: EIVLTQSPATLSLSPGERATLSCRASQSVNSNLNWYQQKPGQAPRLLIYHGSNRATGIPARFSGSGSGTDFTLTISSLEPEDFAVYYCQQFDYFKEHNTFGQGTKVEIKRTVAAPSVFIFPPSDEQLKSGTASVVCLLNNFYPREAKVQWKVDNALQSGNSQESVTEQDSKDSTYSLSSTLTLSKADYEKHKVYACEVTHQGLSSPVTKSFNRGEC
light 2: QTVVTQEPSLTVSPGGTVTLTCRSSTGAVTTSNYANWFQQKPGQAPRGLIGGTNKRAPGTPARFSGSLLGGKAALTLSGAQPEDEAEYYCALWYKQRWVFGGGTKLTVLGQPKAAPSVTLFPPSSEELQANKATLVCLISDFYPGAVTVAWKADSSPVKAGVETTTPSKQSNNKYAASSYLSLTPEQWKSHRSYSCQVTHEGSTVEKTVAPTECS
notes: Kappa-lambda body, lead optimization wave 1
As for B1, the values for the binding result in assay [1] and in assay [2] were “binds” and “no binding (tested: 10 mcg/ml)”, respectively. Besides, the “binding higher than TCB2014 (at 100 nM)” value in assay [3] was at least 40%.

B2: AB1L3-1/N (bispecific antibody, human IgG1, kappa, lambda, L234A L235A)
heavy: EVQLVESGGGLVQPGGSLKLSCAASGFTFNTYAMNWVRQAPGKGLEWVGRIRSKYNNYATYYADSVKDRFTISRDDSKNTAYLQMNSLKTEDTAVYYCVRHGNFGNSYVSWFAYWGQGTLVTVSSASTKGPSVFPLAPSSKSTSGGTAALGCLVKDYFPEPVTVSWNSGALTSGVHTFPAVLQSSGLYSLSSVVTVPSSSLGTQTYICNVNHKPSNTKVDKRVEPKSCDKTHTCPPCPAPEAAGGPSVFLFPPKPKDTLMISRTPEVTCVVVDVSHEDPEVKFNWYVDGVEVHNAKTKPREEQYNSTYRVVSVLTVLHQDWLNGKEYKCKVSNKALAAPIEKTISKAKGQPREPQVYTLPPSREEMTKNQVSLTCLVKGFYPSDIAVEWESNGQPENNYKTTPPVLDSDGSFFLYSKLTVDKSRWQQGNVFSCSVMHEALHNHYTQKSLSLSPG
light 1: EIVLTQSPATLSLSPGERATLSCRASQSVNSNLNWYQQKPGQAPRLLIYHGSNRATGIPARFSGSGSGTDFTLTISSLEPEDFAVYYCQQFDLRHEHNTFGQGTKVEIKRTVAAPSVFIFPPSDEQLKSGTASVVCLLNNFYPREAKVQWKVDNALQSGNSQESVTEQDSKDSTYSLSSTLTLSKADYEKHKVYACEVTHQGLSSPVTKSFNRGEC
light 2: QTVVTQEPSLTVSPGGTVTLTCRSSTGAVTTSNYANWFQQKPGQAPRGLIGGTNKRAPGTPARFSGSLLGGKAALTLSGAQPEDEAEYYCALWYKQRWVFGGGTKLTVLGQPKAAPSVTLFPPSSEELQANKATLVCLISDFYPGAVTVAWKADSSPVKAGVETTTPSKQSNNKYAASSYLSLTPEQWKSHRSYSCQVTHEGSTVEKTVAPTECS
notes: Kappa-lambda body: common heavy chain (hIgG1 L234A+L235A+P329A), kappa CEA light chain AB1, lambda CD3 light chain L3-1 (1A4); also called parental KL bispecific antibody
In the case of B2, the binding result in assay [2] was “no binding (tested: 10 mcg/ml)”.

B3: AB72L3-1/N (bispecific antibody, human IgG1, kappa, lambda, L234A L235A)
heavy: EVQLVESGGGLVQPGGSLKLSCAASGFTFNTYAMNWVRQAPGKGLEWVGRIRSKYNNYATYYADSVKDRFTISRDDSKNTAYLQMNSLKTEDTAVYYCVRHGNFGNSYVSWFAYWGQGTLVTVSSASTKGPSVFPLAPSSKSTSGGTAALGCLVKDYFPEPVTVSWNSGALTSGVHTFPAVLQSSGLYSLSSVVTVPSSSLGTQTYICNVNHKPSNTKVDKRVEPKSCDKTHTCPPCPAPEAAGGPSVFLFPPKPKDTLMISRTPEVTCVVVDVSHEDPEVKFNWYVDGVEVHNAKTKPREEQYNSTYRVVSVLTVLHQDWLNGKEYKCKVSNKALAAPIEKTISKAKGQPREPQVYTLPPSREEMTKNQVSLTCLVKGFYPSDIAVEWESNGQPENNYKTTPPVLDSDGSFFLYSKLTVDKSRWQQGNVFSCSVMHEALHNHYTQKSLSLSPG
light 1: EIVLTQSPATLSLSPGERATLSCRASQSVNSNLNWYQQKPGQAPRLLIYHSTNRPRGIPARFSGSGSGTDFTLTISSLEPEDFAVYYCQQFDYFKEYNTFGQGTKVEIKRTVAAPSVFIFPPSDEQLKSGTASVVCLLNNFYPREAKVQWKVDNALQSGNSQESVTEQDSKDSTYSLSSTLTLSKADYEKHKVYACEVTHQGLSSPVTKSFNRGEC
light 2: QTVVTQEPSLTVSPGGTVTLTCRSSTGAVTTSNYANWFQQKPGQAPRGLIGGTNKRAPGTPARFSGSLLGGKAALTLSGAQPEDEAEYYCALWYKQRWVFGGGTKLTVLGQPKAAPSVTLFPPSSEELQANKATLVCLISDFYPGAVTVAWKADSSPVKAGVETTTPSKQSNNKYAASSYLSLTPEQWKSHRSYSCQVTHEGSTVEKTVAPTECS
notes: Kappa-lambda body, lead optimization wave 2
As to B3, in assay [4], the binding result is “binds”.

These data come from US20230136228A1 (LAMKAP BIO ALPHA, published 2023).
